From publication PMC3093752

Target: T1, DNA polymerase kappa catalytic core (Polκ19-526) (human, UniProt Q9UBT6 19-526)
T1 sequence: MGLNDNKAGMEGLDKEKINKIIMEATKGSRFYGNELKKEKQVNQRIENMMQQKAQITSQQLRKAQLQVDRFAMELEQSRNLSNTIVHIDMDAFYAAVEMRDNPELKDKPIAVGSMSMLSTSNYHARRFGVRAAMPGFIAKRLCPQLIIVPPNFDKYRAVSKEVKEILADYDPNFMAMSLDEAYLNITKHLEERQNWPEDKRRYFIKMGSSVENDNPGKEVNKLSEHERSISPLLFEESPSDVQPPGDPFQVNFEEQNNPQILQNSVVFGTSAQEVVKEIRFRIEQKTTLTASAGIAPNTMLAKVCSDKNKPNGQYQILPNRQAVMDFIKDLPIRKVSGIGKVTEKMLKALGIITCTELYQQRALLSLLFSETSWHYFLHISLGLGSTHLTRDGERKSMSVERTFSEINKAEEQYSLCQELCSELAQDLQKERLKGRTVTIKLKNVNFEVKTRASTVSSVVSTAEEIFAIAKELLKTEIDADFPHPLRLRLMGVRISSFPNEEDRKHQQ
Experiment: X-ray crystallography

B1: 13-nt/18-nt primer/template with cis-syn T-T dimer (dsDNA)
DNA 1: TTCCTTGGTCCTTCCCCC
DNA 2: GGGGGAAGGACCA
modifications: cis-syn cyclobutane thymine dimer in template (T5-T6, position from pairing with primer); 3'-terminal dideoxyadenosine on primer
  binding result: binds
